Source: the supplement of paper PMC10567573

B1: MGC16075 (parent)
chain: AGSRQALSFEVPPCNYDPEKWIQ
B2: EHMT1 (parent)
chain: FHKDCASRVNNASYCPHCGEESSK

Variants of: B1
Experiment: protein stability index of a GFP-peptide fusion (GPS, HEK-293T) (PSI 1-6); higher = more stable
Settings: c terminus: native
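Further: lentivirally expressed fusions sorted by FACS into six bins by GFP to DsRed ratio, PSI derived from sequencing read proportions per bin multiplied by bin number.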

Protein stability index: each site, then its substitutions
W21: Q 2.83, P 5.2
S3: A 1.67, T 1.79, L 1.93
Y16: M 2.03, L 2.04, A 1.54, P 2.22, G 3.5
D17: E 2.07, N 1.51, M 1.9, F 1.57
L7: E 3.23, C 2.75, R 2.5
V11: D 2.93, G 1.63
I22: N 4.99, G 5.11, Q 4.78, P 4.72, T 4.85
Q5: G 2.03, N 1.82, F 3.99, W 4.32, P 1.47, T 2.12, M 1.72, Y 2.68
P18: R 2.36, A 1.62, K 1.79, L 2.72, G 2.41
K20: H 3.7, R 1.98, D 4.29, V 1.96, P 4.17, Y 3.78
S8: W 2.05, R 1.89, C 2.6, F 2.92, E 3.24, H 2.05
E10: Q 1.23, C 2.27, K 1.67, Y 1.75
R4: M 3.08, T 2.14, W 3.74
A1: T 2.09, K 2.18, Y 2.8
P12: C 2.41, G 1.37, K 1.73
Q23: F 2.23, Y 2, W 1.24
E19: M 1.52, A 1.22, C 1.76, S 2.2
P13: W 1.98, Y 2.88, A 1.43, Q 2.03, L 1.62, C 3, F 2.1
C14: V 1.95, D 2
F9: W 2.5, E 3.49
N15: R 2.62, F 1.96, H 1.28, L 1.99, W 2.14
A6: L 3.71, P 1.56, V 2.59, H 1.71, G 1.03
G2: L 2.27, F 2.77, K 2, W 1.68, D 1.93

Variants of: B2
Experiment: as above
Settings: c terminus: a fixed tail appended

Protein stability index of substitutions, site by site:
H2: K 4.17, T 3, G 3.6, L 3.58, I 2.08, E 4.62, F 3.27, M 3.45, N 4.18, A 2.61, S 3.1, C 5.31, W 2.62, Y 3.69, Q 3.1, P 3.37, R 3.65, D 4.8, V 1.96
K3: A 2.58, Y 2.61, H 2.9, W 1.78, V 2.92, R 2.57, I 2.7, T 2.45, G 2.73, Q 2.27, S 2.01, E 3.83, L 2.57, D 3.47, N 2.69, P 2.22, C 4.57, F 1.92, M 2.29
D4: L 2, I 2.56, A 3.16, C 4.12, N 3.3, G 2.56, K 2.59, S 3.12, F 2.04, Q 2.73, E 3.55, P 1.88, R 2.3, H 2.84, M 1.83
F1: E 5.17, T 4.43, M 4.9, V 4.78, D 4.77, Y 3.85, C 5.43, I 4.55, W 4.02, Q 5.09, S 4.77, R 4.59, K 4.62, N 4.87, P 4.43, G 5.15, L 4.78, A 4.71, H 5.16
